This assay deals with GST-LRRK2 WD40 G2385R (human) (UniProt Q5S007). In words: affinity purification with mass spectrometry; 5 µg GST fusion protein on glutathione-Sepharose incubated with adult mouse brain lysate or crude SV fraction (LP2) (1 mg protein) 2 h at 4 °C; washes 150 mM NaCl, 2 mM EDTA, 50 mM Tris-HCl, 0.2% Triton, pH 7.4; LC-MS/MS with label-free quantification, 4 samples per condition (GST-control, GST-WD40, GST-WD40-G2385R).

From PMC5511190 come the findings set out here.

Sequence of GST-LRRK2 WD40 G2385R (human) (Q5S007 whole entry G2385R, the tested form may be a part): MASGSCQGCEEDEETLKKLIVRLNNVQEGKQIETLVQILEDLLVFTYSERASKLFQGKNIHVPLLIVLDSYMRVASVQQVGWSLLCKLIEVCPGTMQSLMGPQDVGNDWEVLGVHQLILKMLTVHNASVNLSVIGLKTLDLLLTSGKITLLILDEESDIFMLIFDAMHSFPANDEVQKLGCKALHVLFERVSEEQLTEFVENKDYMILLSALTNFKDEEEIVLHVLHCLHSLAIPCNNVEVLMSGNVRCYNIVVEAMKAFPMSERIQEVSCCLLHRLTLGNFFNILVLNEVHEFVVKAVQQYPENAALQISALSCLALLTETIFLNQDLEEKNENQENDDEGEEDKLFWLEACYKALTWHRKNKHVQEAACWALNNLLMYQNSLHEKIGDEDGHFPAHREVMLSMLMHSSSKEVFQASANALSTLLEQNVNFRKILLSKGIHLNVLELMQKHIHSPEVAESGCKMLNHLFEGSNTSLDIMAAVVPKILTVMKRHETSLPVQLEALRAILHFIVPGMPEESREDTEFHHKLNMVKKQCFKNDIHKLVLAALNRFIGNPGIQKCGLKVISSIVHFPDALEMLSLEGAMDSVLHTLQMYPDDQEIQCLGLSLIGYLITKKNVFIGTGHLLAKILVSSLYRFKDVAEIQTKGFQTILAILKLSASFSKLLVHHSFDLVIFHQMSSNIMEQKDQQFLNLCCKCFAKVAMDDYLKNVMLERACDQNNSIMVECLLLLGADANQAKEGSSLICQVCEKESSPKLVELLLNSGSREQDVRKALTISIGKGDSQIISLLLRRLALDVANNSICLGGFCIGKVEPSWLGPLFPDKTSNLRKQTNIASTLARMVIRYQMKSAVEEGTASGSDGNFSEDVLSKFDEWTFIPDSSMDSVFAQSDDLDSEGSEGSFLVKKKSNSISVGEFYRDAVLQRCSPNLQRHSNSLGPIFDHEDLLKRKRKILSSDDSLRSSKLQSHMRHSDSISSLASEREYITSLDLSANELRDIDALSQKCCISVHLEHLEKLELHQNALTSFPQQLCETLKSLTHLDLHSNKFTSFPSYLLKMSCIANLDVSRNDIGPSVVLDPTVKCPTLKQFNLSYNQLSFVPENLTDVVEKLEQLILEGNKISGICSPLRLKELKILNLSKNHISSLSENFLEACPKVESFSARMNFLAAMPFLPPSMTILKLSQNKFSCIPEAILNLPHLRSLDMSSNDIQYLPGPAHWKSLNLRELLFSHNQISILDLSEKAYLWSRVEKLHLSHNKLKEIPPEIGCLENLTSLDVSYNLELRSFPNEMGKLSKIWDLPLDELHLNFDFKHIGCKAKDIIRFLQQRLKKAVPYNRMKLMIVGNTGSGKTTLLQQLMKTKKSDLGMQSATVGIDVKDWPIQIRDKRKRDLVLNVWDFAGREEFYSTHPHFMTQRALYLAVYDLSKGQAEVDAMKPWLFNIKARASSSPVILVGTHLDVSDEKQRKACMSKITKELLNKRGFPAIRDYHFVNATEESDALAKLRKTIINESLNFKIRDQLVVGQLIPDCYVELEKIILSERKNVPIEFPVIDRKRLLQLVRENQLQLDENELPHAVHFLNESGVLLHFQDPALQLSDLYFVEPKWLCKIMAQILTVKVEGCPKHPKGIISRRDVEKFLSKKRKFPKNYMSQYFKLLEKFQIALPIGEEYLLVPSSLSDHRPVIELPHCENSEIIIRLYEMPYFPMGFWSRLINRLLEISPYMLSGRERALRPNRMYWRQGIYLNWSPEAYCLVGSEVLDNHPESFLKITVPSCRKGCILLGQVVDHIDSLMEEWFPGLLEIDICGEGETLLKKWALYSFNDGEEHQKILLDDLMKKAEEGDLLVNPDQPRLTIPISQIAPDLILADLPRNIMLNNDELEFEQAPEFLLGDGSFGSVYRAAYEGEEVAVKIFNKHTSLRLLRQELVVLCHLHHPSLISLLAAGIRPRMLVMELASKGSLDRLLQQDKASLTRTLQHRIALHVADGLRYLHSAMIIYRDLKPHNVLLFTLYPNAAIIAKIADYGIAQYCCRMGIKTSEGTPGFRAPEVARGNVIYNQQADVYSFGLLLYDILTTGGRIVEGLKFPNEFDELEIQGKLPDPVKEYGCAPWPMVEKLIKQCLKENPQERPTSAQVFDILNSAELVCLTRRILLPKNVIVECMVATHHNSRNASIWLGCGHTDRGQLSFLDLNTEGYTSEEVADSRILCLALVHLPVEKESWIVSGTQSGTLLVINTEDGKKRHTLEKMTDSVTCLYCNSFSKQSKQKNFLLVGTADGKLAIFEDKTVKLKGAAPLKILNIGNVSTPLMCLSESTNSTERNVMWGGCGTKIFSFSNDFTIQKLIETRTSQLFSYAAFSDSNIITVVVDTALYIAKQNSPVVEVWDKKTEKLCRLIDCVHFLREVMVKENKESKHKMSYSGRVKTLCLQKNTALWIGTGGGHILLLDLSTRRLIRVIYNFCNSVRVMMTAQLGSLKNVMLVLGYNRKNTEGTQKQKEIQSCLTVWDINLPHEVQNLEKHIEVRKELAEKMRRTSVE
Sequence of Dihydropyrimidinase-related protein 1 (P97427 whole entry): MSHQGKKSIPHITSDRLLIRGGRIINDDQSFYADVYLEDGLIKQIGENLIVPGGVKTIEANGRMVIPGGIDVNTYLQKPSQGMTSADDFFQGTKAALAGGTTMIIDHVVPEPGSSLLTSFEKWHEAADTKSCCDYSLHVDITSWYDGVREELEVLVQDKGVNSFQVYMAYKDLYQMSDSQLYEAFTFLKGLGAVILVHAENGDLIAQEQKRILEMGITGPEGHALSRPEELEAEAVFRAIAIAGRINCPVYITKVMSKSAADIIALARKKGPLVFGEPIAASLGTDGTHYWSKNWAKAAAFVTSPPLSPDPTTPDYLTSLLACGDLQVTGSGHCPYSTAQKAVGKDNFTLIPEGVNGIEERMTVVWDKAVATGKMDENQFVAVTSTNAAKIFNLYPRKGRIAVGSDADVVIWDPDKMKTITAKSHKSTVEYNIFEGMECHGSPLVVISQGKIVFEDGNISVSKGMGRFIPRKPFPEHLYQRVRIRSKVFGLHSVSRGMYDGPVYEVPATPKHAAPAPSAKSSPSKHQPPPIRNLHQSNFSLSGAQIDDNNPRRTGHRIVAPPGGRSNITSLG
Sequence of Coronin-1A (O89053 whole entry): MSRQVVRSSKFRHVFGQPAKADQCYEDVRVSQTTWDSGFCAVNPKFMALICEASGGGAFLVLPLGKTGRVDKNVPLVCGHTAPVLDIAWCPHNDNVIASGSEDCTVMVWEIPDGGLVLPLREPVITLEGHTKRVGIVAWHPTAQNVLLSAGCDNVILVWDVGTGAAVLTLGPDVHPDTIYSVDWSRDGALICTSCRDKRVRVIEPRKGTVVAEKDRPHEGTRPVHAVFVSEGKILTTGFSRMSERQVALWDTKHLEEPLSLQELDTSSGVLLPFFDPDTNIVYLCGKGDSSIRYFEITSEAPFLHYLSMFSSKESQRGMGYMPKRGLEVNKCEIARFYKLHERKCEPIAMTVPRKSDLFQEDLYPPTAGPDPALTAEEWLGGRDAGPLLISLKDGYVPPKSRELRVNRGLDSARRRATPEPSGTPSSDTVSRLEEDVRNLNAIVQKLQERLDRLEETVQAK
Sequence of Dihydropyrimidinase-related protein 4 (O35098 whole entry): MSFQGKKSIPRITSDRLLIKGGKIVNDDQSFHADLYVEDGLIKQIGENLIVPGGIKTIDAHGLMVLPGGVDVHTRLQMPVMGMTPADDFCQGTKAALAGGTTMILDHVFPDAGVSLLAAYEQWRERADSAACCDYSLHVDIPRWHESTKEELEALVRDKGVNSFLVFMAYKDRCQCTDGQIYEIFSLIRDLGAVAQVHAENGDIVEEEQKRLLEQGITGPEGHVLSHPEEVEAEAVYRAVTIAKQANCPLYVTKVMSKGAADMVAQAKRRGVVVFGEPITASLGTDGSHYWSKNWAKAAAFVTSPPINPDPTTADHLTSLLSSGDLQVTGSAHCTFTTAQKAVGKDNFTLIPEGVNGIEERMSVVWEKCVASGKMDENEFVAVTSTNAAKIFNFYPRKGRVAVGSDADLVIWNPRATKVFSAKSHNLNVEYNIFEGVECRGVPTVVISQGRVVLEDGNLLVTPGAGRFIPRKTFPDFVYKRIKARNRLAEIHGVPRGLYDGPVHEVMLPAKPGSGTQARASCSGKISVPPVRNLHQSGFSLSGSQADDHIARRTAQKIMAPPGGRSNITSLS
Sequence of Tubulin beta-4B chain (P68372 whole entry): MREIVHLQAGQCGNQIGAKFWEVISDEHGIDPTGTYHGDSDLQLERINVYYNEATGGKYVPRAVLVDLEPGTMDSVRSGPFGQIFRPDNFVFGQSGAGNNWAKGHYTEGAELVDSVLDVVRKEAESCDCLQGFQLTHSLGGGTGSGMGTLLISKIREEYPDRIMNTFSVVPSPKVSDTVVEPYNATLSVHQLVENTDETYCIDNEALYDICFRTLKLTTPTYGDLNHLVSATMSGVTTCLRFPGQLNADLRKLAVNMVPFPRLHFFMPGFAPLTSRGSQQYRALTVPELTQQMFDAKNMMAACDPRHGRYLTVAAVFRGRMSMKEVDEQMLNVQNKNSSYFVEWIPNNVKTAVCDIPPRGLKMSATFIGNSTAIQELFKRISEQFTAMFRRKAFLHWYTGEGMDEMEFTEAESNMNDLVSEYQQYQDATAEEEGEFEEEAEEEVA
Sequence of Tubulin alpha-1A chain (P68369 whole entry): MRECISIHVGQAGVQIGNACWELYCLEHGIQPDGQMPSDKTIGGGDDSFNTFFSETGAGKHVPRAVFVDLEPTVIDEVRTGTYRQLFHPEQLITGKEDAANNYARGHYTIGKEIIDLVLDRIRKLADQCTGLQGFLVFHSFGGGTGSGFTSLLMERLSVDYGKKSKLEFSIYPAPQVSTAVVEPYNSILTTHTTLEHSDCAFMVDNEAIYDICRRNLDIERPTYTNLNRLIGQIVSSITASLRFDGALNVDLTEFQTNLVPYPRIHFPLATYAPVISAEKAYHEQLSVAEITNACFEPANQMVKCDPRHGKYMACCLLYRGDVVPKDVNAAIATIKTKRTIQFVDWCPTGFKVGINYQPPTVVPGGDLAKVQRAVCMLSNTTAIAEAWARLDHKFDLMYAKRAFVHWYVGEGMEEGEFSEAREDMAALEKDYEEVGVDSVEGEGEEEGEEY

Regarding “14-3-3 protein epsilon (from UniProt P62259 1-255) (natural protein)”, the G2385R/WT (ratio of abundance in G2385R versus wild-type bait) came to 0.37.

Regarding “AP-2 complex subunit alpha-1 (from UniProt P17426 1-977) (natural protein)”, the G2385R/WT (ratio of abundance in G2385R versus wild-type bait) was 0.44.

For the substance “Actin-related protein 2/3 complex subunit 1 A (from UniProt Q9R0Q6 1-370) (natural protein)”, the G2385R/WT (ratio of abundance in G2385R versus wild-type bait) worked out at 0.26.

Take “Coronin-1A (from UniProt O89053 1-461) (natural protein)”: the G2385R/WT (ratio of abundance in G2385R versus wild-type bait) turned out to be 0.37.

Consider “Dihydropyrimidinase-related protein 1 (from UniProt P97427 1-572) (natural protein)”, for which the G2385R/WT (ratio of abundance in G2385R versus wild-type bait) turned out to be 0.42.

On to “Dihydropyrimidinase-related protein 4 (from UniProt O35098 1-572) (natural protein)”, for which the G2385R/WT (ratio of abundance in G2385R versus wild-type bait) stood at 0.46.

Regarding “F-actin-capping protein subunit alpha-2 (from UniProt P47754 1-286) (natural protein)”, the G2385R/WT (ratio of abundance in G2385R versus wild-type bait) was 0.5.

As for “Ras-related protein Rab-1A (from UniProt P62821 1-205) (natural protein)”, the G2385R/WT (ratio of abundance in G2385R versus wild-type bait) is 0.62.

As to “Synapsin-2 (from UniProt Q64332 1-586) (natural protein)”, the G2385R/WT (ratio of abundance in G2385R versus wild-type bait) turned out to be 0.53.

Take “Tubulin alpha-1A chain (from UniProt P68369 1-451) (natural protein)”: the G2385R/WT (ratio of abundance in G2385R versus wild-type bait) amounted to 0.49.

Consider “Tubulin alpha-4A chain (from UniProt P68368 1-448) (natural protein)”, for which the G2385R/WT (ratio of abundance in G2385R versus wild-type bait) was 0.53.

Turning to “Tubulin beta-4A chain (from UniProt Q9D6F9 1-444) (natural protein)”, the G2385R/WT (ratio of abundance in G2385R versus wild-type bait) stood at 0.39.

With “Tubulin beta-4B chain (from UniProt P68372 1-445) (natural protein)”, the G2385R/WT (ratio of abundance in G2385R versus wild-type bait) turned out to be 0.49.
